This test deals with T1, HER2-DIVMP (HER2 domain IV model receptor) domain IV fragment (Homo sapiens, UniProt P04626).
T1 chain: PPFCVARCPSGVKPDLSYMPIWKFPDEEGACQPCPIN
The experiment in a line: fluorescence spectroscopy titration.

B1: A9-PEG-A9 dimer (peptide)
chain: QDVNTAVAW
modifications: not fully specified; two A9 chains N-terminally linked via PEG (1 kDa), C-terminal amide; HER2-DIVMP is a synthetic two-chain disulfide-linked peptide
Regarding B1, the Kd (usually the concentration at which binding is half-saturated) came to 5.7 nM.

(Values after paper PMC12406181 (2025).)
